Results taken from paper PMC6024076, “mRNA Deadenylation Is Coupled to Translation Rates by the Differential Activities of Ccr4-Not Nucleases”.

T1: Pab1 (Schizosaccharomyces pombe, UniProt P31209 80-653)
T1 sequence: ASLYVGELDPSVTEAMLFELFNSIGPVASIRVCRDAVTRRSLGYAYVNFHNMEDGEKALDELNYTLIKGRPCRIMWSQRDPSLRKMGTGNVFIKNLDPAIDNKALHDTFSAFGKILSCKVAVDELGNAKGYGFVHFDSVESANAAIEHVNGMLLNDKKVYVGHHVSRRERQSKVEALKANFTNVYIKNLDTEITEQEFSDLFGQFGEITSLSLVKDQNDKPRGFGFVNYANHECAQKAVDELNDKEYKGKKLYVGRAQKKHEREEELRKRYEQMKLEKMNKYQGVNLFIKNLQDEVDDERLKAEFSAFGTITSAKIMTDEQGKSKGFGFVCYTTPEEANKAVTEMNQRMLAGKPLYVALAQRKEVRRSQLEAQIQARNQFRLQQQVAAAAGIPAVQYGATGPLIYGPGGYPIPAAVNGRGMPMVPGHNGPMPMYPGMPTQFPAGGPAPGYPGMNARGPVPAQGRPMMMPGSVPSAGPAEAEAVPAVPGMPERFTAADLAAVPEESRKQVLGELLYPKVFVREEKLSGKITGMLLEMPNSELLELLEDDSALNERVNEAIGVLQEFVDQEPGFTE


Columns and labels:
[1] = target: GST-Pab1 (S. pombe poly(A)-binding protein Pab1) (S. pombe) (UniProt P31209)
Pab1 [2] = target: T1, Pab1; assay: fluorescence polarization; FP: 20 mM HEPES pH 7.4, 150 mM NaCl, 22 C, 2 h, 0.2 nM RNA; switchSENSE: same buffer + 0.001% Tween-20, 25 nM Pab1, 20 C; EMSA: 20 mM PIPES pH 6.8, 10 mM KCl, 90 mM NaCl, 2 mM Mg(OAc)2, 0.1 mM TCEP, 22 C, 200 nM RNA; settings: protein: recombinant; tags: N-terminal GST cleaved with 3C protease; label: 5' 6-FAM
Pab1 [3] = target: T1, Pab1; assay: fluorescence polarization; one-site quadratic fit; printed label order scrambled, assigned by koff/kon; FP: 20 mM HEPES pH 7.4, 150 mM NaCl, 22 C, 2 h, 0.2 nM RNA; switchSENSE: same buffer + 0.001% Tween-20, 25 nM Pab1, 20 C; EMSA: 20 mM PIPES pH 6.8, 10 mM KCl, 90 mM NaCl, 2 mM Mg(OAc)2, 0.1 mM TCEP, 22 C, 200 nM RNA; settings: protein: recombinant; tags: N-terminal GST cleaved with 3C protease; label: 5' 6-FAM

Molecule	Kd (Pab1 [2])	further results
S. pombe Ccr4-Not complex (WT), seven core subunits (from UniProt O74874 1-690; O74856 1-335; P87112 1-2100; P87240 1-306; O13870 1-640; Q92368 1-283)		average rate of deadenylation of 20-mer-A60 RNA by purified Ccr4-Not with Pab1 (two molecules per RNA; GST cleaved) against without Pab1 [1]: 3 fold
AAAAAAAAAAAAAAAAAAAAAA (ssRNA) [A22]	~0.5 nM	
AAAAAAAAAAAAAAAAAAAAAAAAAAAAAA (ssRNA) [A30]		Kd (Pab1 [3]): 0.25 ± 0.03 nM
AAAAAAAAAAAA (ssRNA) [A12]	~27 nM	
